{
  "source": "patent US12144864B2",
  "about": "“Tubulysins and protein-tubulysin conjugates” (Regeneron Pharmaceuticals, Inc., priority 2018, dated 2024)",
  "key": {"[1]": {"biological_target": "T1, STEAP2 endogenously expressed on C4-2 prostate cancer cells (human, UniProt Q8NFT2 1-490)", "T1 sequence (looked up)": "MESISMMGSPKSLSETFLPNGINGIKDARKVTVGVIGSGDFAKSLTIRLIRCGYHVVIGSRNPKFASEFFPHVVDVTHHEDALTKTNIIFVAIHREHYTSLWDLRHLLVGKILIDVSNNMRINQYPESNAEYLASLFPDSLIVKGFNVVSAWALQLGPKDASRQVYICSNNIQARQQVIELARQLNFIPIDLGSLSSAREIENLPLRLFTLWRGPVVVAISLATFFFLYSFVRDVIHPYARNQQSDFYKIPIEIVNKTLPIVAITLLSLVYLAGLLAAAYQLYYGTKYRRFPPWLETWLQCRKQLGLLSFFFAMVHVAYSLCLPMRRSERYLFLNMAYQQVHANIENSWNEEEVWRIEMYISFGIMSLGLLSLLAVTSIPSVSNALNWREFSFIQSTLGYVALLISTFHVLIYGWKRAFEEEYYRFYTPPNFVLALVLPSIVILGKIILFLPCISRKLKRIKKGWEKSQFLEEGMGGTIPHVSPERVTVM", "test": "cell-based or functional assay"}, "[2]": {"test_system": "C4-2 cells", "test": "Cytotoxicity of anti-STEAP2 ADCs, payloads and reference compounds in C4-2 cells", "assay_type": "cell-based, human", "conditions": "at maximum concentration tested", "protocol": "(§1) To test the ability of the disclosed tubulysin payloads to kill human cell lines, an in vitro cytotoxicity assay was performed. In vitro cytotoxicity of the disclosed payloads, as well as reference compounds, were evaluated using the CellTiter-Glo Assay Kit (Promega, Cat #G7573), in which the quantity of ATP present is used to determine the number of viable cells in culture. For the assay, C4-2, HEK293, or T47D cells were seeded at 4000 cells/well on Nunclon white 96-well plates in complete growth medium (DME high glucose:Ham's F12 at 4:1, 10% FBS, 100 units/ml Penicillin, 100 ug/ml streptomycin, 53 ug/ml glutatmine, 10 ug/ml insulin, 220 ng/ml biotin, 12.5 pg/ml T3, 12.5 ug/ml Adenine, 4 ug/ml transferrin for C42 cells; DME high glucose, 10% FBS, 100 units/ml Penicillin, 100 ug/ml streptomycin, 53 ug/ml glutatmine for HEK293; RPMI, 10% FBS, 100 units/ml Penicillin, 100 ug/ml streptomycin, 53 ug/ml glutatmine, 10 ug/ml insulin, 10 mM HEPEs, 200 nM Sodium Pyruvate for T47D cells) and grown overnight at 37° C. in 5% CO2. For cell viability curves, 1:3 serially diluted payloads were added to the cells at final concentrations ranging from 100 nM to […], including a no treatment control group, and were then incubated for 5 days. After the 5-day incubation, cells were incubated at room temperature with 100 μL of CellTiter-Glo reagents for 10 minutes. Relative luminescence units (RLU) were determined on a Victor plate reader (PerkinElmer). The IC50 values were determined from a four-parameter logistic equation over a 10-point response curve (GraphPad Prism). All IC50 values are expressed in molar (M) concentration. The percent cell killing (% kill) at the maximum concentration tested was estimated from the following formula (100−% viable cells). Averages±standard deviation (SD) are included where replicate experiments were performed.\nTo further test the ability of the disclosed tubulysin payloads, reference compounds, and antibody drug conjugates using these payloads, a cytotoxicity assay was performed using C4-2 cells as described in this example (see above). For these studies, anti-STEAP2 antibodies were conjugated to select tubulysins payloads, and the compounds were tested at concentrations starting at 100 nM with 3-fold serial dilution. All IC50 values are expressed in nM concentration and the percent cell killing at the maximum concentration tested was estimated from the following formula (100−% viable cells)."}, "[3]": {"test": "In vitro plasma stability of ADCs (DAR by LC-MS), mouse plasma", "assay_type": "in vitro ADME", "conditions": "37° C., 50 μg/mL, DAR at 0 hr 3.8 (LP3 ADC), 4.0 (LP4 ADC), acetyl-hydrolyzed species counted as loss of drug", "protocol": "(§2) To determine the plasma stability of representative ADCs containing the tubulysin payloads, ADCs were incubated in vitro with plasma from different species, and the DAR was evaluated after incubation at physiological temperature (37° C.) for 3 days.\n(§3) For the assay, each ADC sample (anti-PRLR antibody-LP3 or anti-PRLR antibody-LP4) in PBS buffer was added to fresh pooled male mouse, cynomologus monkey, rat, or human plasma, separately, at a final concentration of 50 μg/mL in a 96-well plate, and subsequently incubated at 37° C. for 72 hours. After incubation, each sample (100 μL final volume) was individually frozen at −80° C. until analysis.\n(§4) Affinity capture of the ADCs from the plasma samples was carried out on a KingFisher 96 magnetic particle processor (Thermo Electron). First, biotinylated extracellular domain of human PRLR expressed with a myc-myc hexahistidine tag (hPRLR ecto-MMH; SEQ ID NO: 17;100 μg/mL) was immobilized on streptavidin paramagnetic beads (In vitrogen, Cat #60210). Each plasma sample containing tubulysin ADCs (100 μL) was mixed at 600 rpm with 100 μL of the beads (the commercial beads come in volume) at room temperature for 2 hours in a 96-well plate. The beads were then washed three times with 600 μL of HBS-EP (GE healthcare, Cat #BR100188), once with 600 μL of H2O, and then once with 600 μL of 10% acetonitrile in water. […]"}, "[4]": {"test": "In vitro plasma stability of ADCs (DAR by LC-MS), cynomolgus monkey plasma", "assay_type": "in vitro ADME", "conditions": "37° C., 50 μg/mL, DAR at 0 hr 3.8 (LP3 ADC), 4.0 (LP4 ADC), acetyl-hydrolyzed species counted as loss of drug", "protocol": "as §2, §3, §4"}, "[5]": {"test": "In vitro plasma stability of ADCs (DAR by LC-MS), rat plasma", "assay_type": "in vitro ADME", "conditions": "37° C., 50 μg/mL, DAR at 0 hr 3.8 (LP3 ADC), 4.0 (LP4 ADC), acetyl-hydrolyzed species counted as loss of drug", "protocol": "as §2, §3, §4"}, "[6]": {"test": "In vitro plasma stability of ADCs (DAR by LC-MS), human plasma", "assay_type": "in vitro ADME", "conditions": "37° C., 50 μg/mL, DAR at 0 hr 3.8 (LP3 ADC), 4.0 (LP4 ADC), acetyl-hydrolyzed species counted as loss of drug", "protocol": "as §2, §3, §4"}, "[7]": {"test_system": "HCT15/PRLR cells", "test": "Cytotoxicity of anti-PRLR tubulysin ADCs and payloads in HCT15/PRLR cells with or without Verapamil", "assay_type": "cell-based, human", "conditions": "at maximum concentration tested; for % kill on HCT15/PRLR w/ Verapamil: with Verapamil; for % kill on HCT15/PRLR w/o Verapamil: without Verapamil", "protocol": "as §1\nBioassays were developed to assess the efficacy of an anti-PRLR antibody conjugated with the disclosed tubulysin payloads and reference payloads. It was developed to assess the activity of tubulysin payloads after internalization of an anti-PRLR-tubulysin ADC into cells, release of the payload, and subsequent cytotoxicity. For this assay, a HCT15 line was engineered to express human full length PRLR (accession #NP_000940.1). The resulting stable cell line is referred to herein as HCT15/PRLR. In vitro cytotoxicity of the disclosed payloads, reference compounds, and tested ADCs were evaluated similarly as described in this example using HCT15/PRLR cells with or without […] of Verapamil diluted in normal culture medium. The compounds were tested at concentrations starting at 100 nM with 3-fold serial dilution. All IC50 values are expressed in nM concentration and the percent cell killing (% kill) at the maximum concentration tested was estimated from the following formula (100−% viable cells)."}},
  "data": [
    {"molecule": "anti-STEAP2-LP5 (antibody, V domains shown, linker-payload LP5 (DIBAC-suc-PEG4-VA, payload IVd) conjugated; site and DAR of this conjugate not printed (the site-specific procedure uses N297Q, EU numbering, with azido-PEG3-amine on glutamines)) VH: QVQLVESGGGVVQPGRSLRLSCVASGFTISSYGMNWVRQAPGKGLEWVAVISYDGGNKYSVDSVKGRFTISRDNSKNTLYLQMNSLRAEDSAVYYCARGRYFDLWGRGTLVTVSS VL: DIQMTQSPSTLSASVGDRVTITCRASQSISSWLAWYQQKPGRAPNLLISKASSLKSGVPSRFSGSGSGTEFTLTVSSLQPDDFATYYCQQYYSYSYTFGQGTKLEIK", "values": [
      {"measurement": "IC50, cytotoxicity in the C4-2 cell based assay (CellTiter-Glo)", "setting": "[1]", "result": 0.28, "unit": "nM"},
      {"measurement": "% kill", "setting": "[2]", "result": 96, "unit": "%"}
    ]},
    {"molecule": "Anti-PRLR-LP3 (conjugate, non-natural residues) VH: QVQLVESGGGVVQPGRSLRLSCGASGFTFRNYGMQWVRQGPGKGLEWVTLISFDGNDKYYADSVKGRFTISRDNSKNTLFLQMNSLRTEDTAVYYCARGGDFDYWGQGTLVTVSS VL: DIQMTQSPSSLSASVGDRVTITCRASQDIRKDLGWYQQKPGKAPKRLIYAASSLHSGVPSRFSGSGSGTEFTLTISSLQPEDFATYYCLQHNSYPMYTFGQGTKLEIK", "values": [
      {"measurement": "DAR after 72 hours of incubation", "setting": "[3]", "result": 2.7},
      {"measurement": "DAR after 72 hours of incubation", "setting": "[4]", "result": 2.7},
      {"measurement": "DAR after 72 hours of incubation", "setting": "[5]", "result": 2.7},
      {"measurement": "DAR after 72 hours of incubation", "setting": "[6]", "result": 3.0},
      {"measurement": "% kill on HCT15/PRLR w/ Verapamil", "setting": "[7]", "result": 91, "unit": "%"},
      {"measurement": "% kill on HCT15/PRLR w/o Verapamil", "setting": "[7]", "result": 90, "unit": "%"}
    ]},
    {"molecule": "Anti-PRLR-LP4 (conjugate, non-natural residues) VH: QVQLVESGGGVVQPGRSLRLSCGASGFTFRNYGMQWVRQGPGKGLEWVTLISFDGNDKYYADSVKGRFTISRDNSKNTLFLQMNSLRTEDTAVYYCARGGDFDYWGQGTLVTVSS VL: DIQMTQSPSSLSASVGDRVTITCRASQDIRKDLGWYQQKPGKAPKRLIYAASSLHSGVPSRFSGSGSGTEFTLTISSLQPEDFATYYCLQHNSYPMYTFGQGTKLEIK", "values": [
      {"measurement": "DAR after 72 hours of incubation", "setting": "[3]", "result": 2.7},
      {"measurement": "DAR after 72 hours of incubation", "setting": "[4]", "result": 2.7},
      {"measurement": "DAR after 72 hours of incubation", "setting": "[5]", "result": 2.6},
      {"measurement": "DAR after 72 hours of incubation", "setting": "[6]", "result": 3.0},
      {"measurement": "% kill on HCT15/PRLR w/ Verapamil", "setting": "[7]", "result": 91, "unit": "%"},
      {"measurement": "% kill on HCT15/PRLR w/o Verapamil", "setting": "[7]", "result": 65, "unit": "%"}
    ]}
  ]
}
